In US20170233490A1 (Hoffmann-La Roche, published 2017):

What was measured:
[1] = target: T1, human HER3 Extracellular Domain (ECD) (human, UniProt P21860 20-643); experiment: SPR Biacore T200, antibody captured, 25 C
T1 construct: human recombinant, 68 kDa; 'closed' conformation without ligand; also called Her3 ECD; Her-3 ECD
Experimental: (§1) A Biacore T200 instrument (GE Healthcare) was mounted with a CMS series sensor. The sensor was normalized in HBS-ET buffer (10 mM HEPES pH 7.4, 150 mM NaCl, 3 mM EDTA, 0.05% w/v Tween 20) according to the manufacturer's instructions. The sample buffer was the system buffer supplemented with 1 mg/ml CMD (Carboxymethyldextran, Sigma #86524). The system operated at 25° C. 6500 RU RAM-Fcγ (relative units of Fcγ-fragment RamIgG, GE Healthcare) were immobilized according to the manufacturer's instructions using amine coupling EDC/NHS chemistry on all four flow cells. The sensor was deactivated using 1M ethanolamine. […] Concentration dependent kinetics were measured. […] All analytes were injected for 5 min association time and 10 min dissociation time at 100 μl/min flow rate. The sensor capture system was regenerated by a 3 min injection at 10 μl/min of 10 mM glycine pH 1.7. Where possible kinetic data was evaluated using the Biacore T200 evaluation software.

[2] = target: T2, human HER4 Extracellular Domain (ECD) (human, UniProt Q15303 26-651); experiment: SPR Biacore T200, antibody captured, 25 C
T2 construct: also called Her4 ECD; HER4-ECD
T2 sequence: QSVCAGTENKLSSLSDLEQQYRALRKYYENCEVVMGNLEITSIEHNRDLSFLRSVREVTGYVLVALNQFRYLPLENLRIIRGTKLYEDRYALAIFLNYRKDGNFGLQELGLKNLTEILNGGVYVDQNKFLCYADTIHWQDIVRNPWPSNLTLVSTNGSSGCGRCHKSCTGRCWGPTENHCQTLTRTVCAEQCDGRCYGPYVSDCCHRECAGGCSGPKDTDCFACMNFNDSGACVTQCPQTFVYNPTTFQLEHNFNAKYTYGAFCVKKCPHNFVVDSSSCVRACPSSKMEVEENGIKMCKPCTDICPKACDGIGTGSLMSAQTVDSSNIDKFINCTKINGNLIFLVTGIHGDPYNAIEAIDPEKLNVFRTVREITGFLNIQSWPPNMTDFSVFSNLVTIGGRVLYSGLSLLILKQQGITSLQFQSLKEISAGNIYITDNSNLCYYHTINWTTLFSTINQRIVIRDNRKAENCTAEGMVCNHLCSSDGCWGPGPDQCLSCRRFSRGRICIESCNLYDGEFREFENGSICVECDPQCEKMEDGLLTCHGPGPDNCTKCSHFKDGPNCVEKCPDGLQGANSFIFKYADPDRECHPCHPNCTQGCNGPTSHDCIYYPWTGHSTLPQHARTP
Experimental: as §1

[3] = target: T3, human HER1 Extracellular Domain (ECD) (human, UniProt P00533 25-645); experiment: SPR Biacore T200, antibody captured, 25 C
T3 construct: also called Her1 ECD; HER1-ECD
Experimental: as §1

[4] = target: T4, HER3 ECD-HRG complex (human, UniProt P21860 20-643); experiment: SPR Biacore T200, antibody captured, 25 C
T4 construct: HER3 ECD preincubated with a 3- to 6-fold molar excess of Heregulin ('open' conformation); biotinylated Her3-ECD in the ribosome display; also called HER3-ECD/HRG1β
Experimental: as §1

[5] = target: T5, HER4 ECD-HRG complex (human, UniProt Q15303 26-651); experiment: SPR Biacore T200, antibody captured, 25 C
T5 construct: HER4 ECD preincubated with a 5-fold molar excess of Heregulin
T5 sequence 1: T2 sequence
T5 sequence 2: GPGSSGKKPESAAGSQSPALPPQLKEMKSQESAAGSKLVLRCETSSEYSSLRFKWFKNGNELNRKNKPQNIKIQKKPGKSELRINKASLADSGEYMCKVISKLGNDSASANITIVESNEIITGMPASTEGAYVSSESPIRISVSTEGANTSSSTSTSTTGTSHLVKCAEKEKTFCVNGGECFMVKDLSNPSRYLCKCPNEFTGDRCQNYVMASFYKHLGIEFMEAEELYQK
Experimental: as §1

[6] = target: T6, TtSlyDcas; experiment: SPR Biacore T200, antibody captured, 25 C
T6 construct: scaffold without hairpin insert, negative control
T6 chain: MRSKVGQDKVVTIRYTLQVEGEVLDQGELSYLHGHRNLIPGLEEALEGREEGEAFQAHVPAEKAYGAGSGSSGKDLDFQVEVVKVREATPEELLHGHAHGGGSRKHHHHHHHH
Experimental: as §1

[7] = target: T7, TtSlyDcys-Her3; experiment: SPR Biacore T200, antibody captured, 25 C
T7 chain: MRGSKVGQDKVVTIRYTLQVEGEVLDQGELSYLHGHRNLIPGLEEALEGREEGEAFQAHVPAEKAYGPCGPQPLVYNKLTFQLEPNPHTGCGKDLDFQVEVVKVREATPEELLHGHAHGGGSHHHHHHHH
Experimental: as §1

[8] = target: T8, SBP-tagged HER3-ECD (human, UniProt P21860 20-643); experiment: plate assay: SBP-tagged HER3-ECD on streptavidin plate, M-05-74 titrated in the presence of 10 nM Europium-labeled Heregulin-beta, time-resolved fluorescence; half-maximal promotion of HRG binding
T8 construct: from cell culture supernatant, held on a streptavidin plate; not shown: SBP tag
Experimental: On the next day the wells were washed three times with washing buffer (PBS+0.05% Tween-20) and blocked with PBS containing 1% BSA for one hour. After another three washes with washing buffer, 40 μl antibody solution (in Delfia Binding Buffer) was added to each well as a 2× stock of the desired final concentrations (10⁻³ to 10³ nM, alternatively 10⁻⁴ to 10² nM). […] The plates were incubated on a shaker at room temperature for two hours. Following three washes with Delfia Wash Buffer, Delfia Enhancement Solution was added and incubated on a shaker for 15 minutes (light protected). Finally, the plates were measured in a Tecan Infinite F200 reader using a time-resolved fluorescence measurement protocol.

B1: anti-HER3/HER4 antibody M-05-74 (antibody, V domains shown)
VH: QVQLQQSGAELAKPGASVKMSCKTSGYTLTDYWIHWVKQRPGQGLEWIGYINPYTGYTESNQKFKDKATLTADKSSNTAYIQLSSLTSEDSAVYYCARPYYYGDYWGQGTTLTVSS
VL: QIVLTQSPAIMSASPGERVTITCSASSSVSYMHWFQQKPGTSPKLLIYSTSNLASGVPARFSGSGSGTSYSLTISRMEAEDAATYYCQQRSSYPFTFGSGTKLEIK
notes: murine monoclonal IgG from hybridoma (supernatant or purified), bivalent; also called M-074; M-5-74
Kd [1]: 1.1 nM
MR (Molar Ratio) [1]: 0.1
koff [1]: 0.00011 s⁻¹
kon [1]: 96000 M⁻¹ s⁻¹
Kd [2]: 51 nM
MR (Molar Ratio) [2]: 0.1
koff [2]: 0.00082 s⁻¹
kon [2]: 16000 M⁻¹ s⁻¹
binding result [3]: no binding (tested: up to 90 nM)
Kd [4]: 2.8 nM
MR (Molar Ratio) [4]: 0.8
koff [4]: 0.00029 s⁻¹
kon [4]: 100000 M⁻¹ s⁻¹
Kd [5]: 8.1 nM
MR (Molar Ratio) [5]: 0.8
koff [5]: 0.00081 s⁻¹
kon [5]: 99000 M⁻¹ s⁻¹
MR (Molar Ratio) [6]: 0
binding result [6]: no binding (tested: up to 90 nM)
Kd [7]: 7.8 nM
MR (Molar Ratio) [7]: 1.9
koff [7]: 0.00024 s⁻¹
kon [7]: 30000 M⁻¹ s⁻¹
EC50 (read off the curve) [8]: ~0.3 nM
